Here are results for eight substances from article PMC7840056.

Holding throughout (assay): bacterial two-hybrid (BACTH), ß-galactosidase activity
In assay [1] the target is SlyD wild type fused to the T25 fragment of Bordetella pertussis adenylate cyclase (pNKT25) (UniProt O25748). The note with it: E. coli strain BTH101; each measurement was performed three times; parent: est. 2500; read off a plot.
Assay [2] deals with NiuD permease subunit of the NiuBDE nickel ABC transporter, full length, fused to the T18 fragment (pUT18). The note with it: E. coli strain BTH101; each measurement was performed three times; parent: est. 2400; read off a plot.
Assay [3] deals with NiuDΔ7, C-terminally truncated NiuD fused to the T18 fragment. The note with it: E. coli strain BTH101; each measurement was performed three times; parent: est. 2500; read off a plot.

Take “NiuDΔ7, C-terminally truncated NiuD fused to the T18 fragment R210G”: in assay [1], the response worked out at 120 Miller Units.

For the substance “NiuDΔ7, C-terminally truncated NiuD fused to the T18 fragment R208Q”, in assay [1], the response is 95 Miller Units.

As to “NiuDΔ7, C-terminally truncated NiuD fused to the T18 fragment W209G”, the response in assay [1] is 720 Miller Units.

As for “NiuDΔ7, C-terminally truncated NiuD fused to the T18 fragment R208S”, in assay [1], the response was determined as 1000 Miller Units.

For “NiuDΔ7, C-terminally truncated NiuD fused to the T18 fragment W209F”, the response in assay [1] worked out at 1200 Miller Units.

“SlyD wild type fused to the T25 fragment of Bordetella pertussis adenylate cyclase (pNKT25) (from UniProt O25748) I47S; Y73A; F137Y”: the response in assay [2] is 1800 Miller Units; in assay [3], 2100 Miller Units.

Regarding “NiuDΔ7, C-terminally truncated NiuD fused to the T18 fragment P203V”, the response in assay [1] came out at 1500 Miller Units.

“NiuDΔ7, C-terminally truncated NiuD fused to the T18 fragment R208G; W209G; R210G”: the response in assay [1] turned out to be 30 Miller Units.
